In assay [1] the target is human mesothelin with His-tag (in house) (human) (UniProt Q13421). Put plainly: ELISA, IgG on captured His-huMesothelin (in house).
Assay [2] concerns the target human mesothelin with His-tag (R&D Systems) (human) (UniProt Q13421). In words: ELISA, IgG on captured His-huMesothelin (R&D). On the technique in general: In an ELISA, binding on a coated surface is turned into a signal by an enzyme label.

human mesothelin with His-tag (R&D Systems) (human), sequence (Q13421 other isoform, or with tags, fused parts or gaps limits assumed): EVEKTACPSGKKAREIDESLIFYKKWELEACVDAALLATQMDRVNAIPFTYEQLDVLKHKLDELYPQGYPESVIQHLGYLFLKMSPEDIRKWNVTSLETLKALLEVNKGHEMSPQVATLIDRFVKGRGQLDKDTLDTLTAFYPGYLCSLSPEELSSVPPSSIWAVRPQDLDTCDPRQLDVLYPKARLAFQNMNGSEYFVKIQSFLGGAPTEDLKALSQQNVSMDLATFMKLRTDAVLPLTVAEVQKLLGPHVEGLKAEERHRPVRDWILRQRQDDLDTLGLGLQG
human mesothelin with His-tag (in house) (human), sequence (Q13421 other isoform, or with tags, fused parts or gaps limits assumed): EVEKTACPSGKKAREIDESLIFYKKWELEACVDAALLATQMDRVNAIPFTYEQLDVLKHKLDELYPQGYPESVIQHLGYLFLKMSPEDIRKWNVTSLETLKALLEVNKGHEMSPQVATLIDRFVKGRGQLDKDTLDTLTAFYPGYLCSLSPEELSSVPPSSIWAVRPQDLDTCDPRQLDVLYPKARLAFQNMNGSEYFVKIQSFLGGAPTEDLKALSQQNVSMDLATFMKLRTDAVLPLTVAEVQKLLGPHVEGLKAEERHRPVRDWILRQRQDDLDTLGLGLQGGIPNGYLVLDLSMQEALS

As usually defined, the EC50 is the concentration giving half of the maximal effect. Higher therefore signals lower potency in that assay. Turning to “IgG VH HC_SS1/15436 + VL LC_SS1/15455 (antibody)”, the EC50 came out at 0.0411 µg/mL in assay [1] and 0.0461 µg/mL in assay [2].

The values are drawn from patent US20170051072A1.
